Experimental data reported in patent US20020193570A1 (EMD LEXIGEN RESEARCH CENTER, published 2002).

T1: Fc-p40 fusion protein (human, UniProt P29460 23-328)
T1 construct: mature; Expected to dimerize through the Fc; not shown: human IgG1 Fc (vector pdC-Fc-X)
T1 sequence (looked up): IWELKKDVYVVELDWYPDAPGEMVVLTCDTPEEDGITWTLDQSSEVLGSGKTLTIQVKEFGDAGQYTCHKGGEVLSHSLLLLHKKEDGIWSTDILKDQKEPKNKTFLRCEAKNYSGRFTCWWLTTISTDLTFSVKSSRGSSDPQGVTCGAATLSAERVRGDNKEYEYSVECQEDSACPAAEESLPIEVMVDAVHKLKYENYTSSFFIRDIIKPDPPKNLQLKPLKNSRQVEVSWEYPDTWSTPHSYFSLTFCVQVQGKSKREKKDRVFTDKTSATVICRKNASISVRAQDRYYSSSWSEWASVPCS

T2: free p40 subunit of human IL-12 (human, UniProt P29460 23-328)
T2 construct: mature
T2 sequence (looked up): T1 sequence (looked up)

B1: free p35 subunit of human IL-12 (ligand, UniProt P29459 23-219, looked up)
chain: RNLPVATPDPGMFPCLHHSQNLLRAVSNMLQKARQTLEFYPCTSEEIDHEDITKDKTSTVEACLPLELTKNESCLNSRETSFITNGSCLASRKTSFMMALCLSSIYEDLKMYQVEFKTMNAKLLMDPKRQIFLDQNMLAVIDELMQALNFNSETVPQKSSLEEPDFYKTKIKLCILLHAFRIRAVTIDRVMSYLNAS
notes: mature
B2: Fc-p35 fusion protein (Fc fusion, human, UniProt P29459 23-219, looked up)
chain: B1 chain
notes: mature; Expected to dimerize through the Fc; Not secreted unless paired with p40; not shown: human IgG1 Fc (vector pdC-Fc-X)

Experiments:
[1] = biological target: T1, Fc-p40 fusion protein; assay: co-expression in 293 cells, protein A Sepharose precipitation of 35S-labelled supernatant, SDS-PAGE
Procedure: (§1) After 16 hr, the medium containing the precipitate was removed and replaced with fresh medium. After 3 days, the supernatant was removed and analyzed for production of transfected gene expression by ELISA, biological determination of IL-12 activity, or immunoprecipitation and analysis on SDS gels of radioactively labeled proteins. For labeling, medium without methionine was used to replace the growth medium on the second day of culture and ³⁵S-methionine (100 μCi/ml) is added. After an additional 16 hr incubation, the media was harvested, clarified by centrifugation (5 min at 13,000 rpm in a table top microcentrifuge) and incubated with protein A Sepharose beads (10 μl of bead volume per ml of culture supernatant). After 1 hr at room temperature, the beads were washed by repeated centrifugation and resuspension in PBS buffer containing 1% NP-40. The final pellet was resuspended in SDS-containing gel buffer and boiled for 2 min. After removing the beads by centrifugation, the supernatant was divided into two aliquots. Reducing agent (5% 2-mercaptoethanol) was added to one sample and both are boiled for 5 min prior to loading on an SDS polyacrylamide gel. After electrophoresis the gel was exposed to X-ray film (autoradiography).
(§2) An example of an analysis of the co-expression of various fusion proteins and individually expressed proteins, under reducing conditions, is shown in FIG. 2. […] The p40 subunit, on the other hand, was readily secreted when fused to Fc (lane 2). The p35 subunit was secreted when it could pair with the p40 subunit, either as an Fc-p35 fusion pairing with an Fc-p40 fusion protein (lane 3), the Fc-p35 pairing with free p40 (lane 4), or free p35 pairing with the Fc-p40 fusion protein (lane 5). In all cases of expression of a free subunit, together with a fusion protein, the free subunit assembles with the other subunit and forms a covalent, disulfide bond. […]

[2] = biological target: T2, free p40 subunit of human IL-12; assay: as above
Procedure: as §1, §2

Binder	binding result [1]	binding result [2]
B1	binds	–
B2	binds	binds
